According to patent publication US20250297255A1 (ARSENAL BIOSCIENCES, published 2025):

Target: T1, Human TMPRSS4 (Transmembrane protease, serine 4), wild type full length (human, UniProt Q9NRS4 1-437)
T1 construct: Type II membrane protein over-expressed on HEK293T cells (also endogenous on H1975 and LUDLU-1 cells); also called TMPRSS4 WT; HEK293T-TMPRSS4
Assay: flow cytometry, monoclonal phage on HEK293T-TMPRSS4 cells;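 further: bound phage detected with a PE-labelled mouse anti-M13 monoclonal antibody, read by flow cytometry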
Protocol: Monoclonal phages were prepared, screened for binding to HEK293T-TMPRSS4 cells by flow cytometry. Monoclonal phage clones were incubated with HEK293T-TMPRSS4 cells, the cells were washed and then incubated with a PE conjugated mouse anti-M13 mAb, and washed again before being analyzed by flow cytometry. The positive candidates were selected based on cytometry results, then followed by next-gen sequencing of the positive hits.

T1 sequence (Q9NRS4 whole entry): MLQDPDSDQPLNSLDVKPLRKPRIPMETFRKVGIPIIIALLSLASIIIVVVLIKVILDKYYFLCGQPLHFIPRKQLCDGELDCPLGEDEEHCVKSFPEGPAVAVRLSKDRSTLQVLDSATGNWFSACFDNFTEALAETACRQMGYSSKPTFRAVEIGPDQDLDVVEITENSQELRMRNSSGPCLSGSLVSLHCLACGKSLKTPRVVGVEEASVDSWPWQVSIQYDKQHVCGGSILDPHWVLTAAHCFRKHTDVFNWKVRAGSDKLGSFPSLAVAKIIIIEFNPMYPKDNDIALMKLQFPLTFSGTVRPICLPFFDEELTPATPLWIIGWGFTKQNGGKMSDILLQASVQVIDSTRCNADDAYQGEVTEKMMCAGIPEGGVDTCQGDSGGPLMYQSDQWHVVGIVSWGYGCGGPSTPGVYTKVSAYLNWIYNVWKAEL

| Binder | binding result |
| --- | --- |
| TMPRSS4 Ab1 scFv (VH-VL) (scFv, on monoclonal phage in the screen) scFv: QVQLVQSGAEVKKPGSSVKVSCKASGYTFTDYYMHWVRQAPGQGLEWMGGIIPIFGTANYAQKFQGRVTITADESTSTAYMELSSLRSEDTAVYYCAKEGANGYWGQGTLVTVSSGGGGSGGGGSGGGGSDIQMTQSPSSLSASVGDRVTITCQASQDISNYLNWYQQKPGKAPKLLIYKASSLESGVPSRFSGSGSGTDFTLTISSLQPEDFATYYCQQSSRIPPTFGQGTKVEIK | binds |
| TMPRSS4 Ab22 scFv (VH-VL) (scFv, on monoclonal phage in the screen) scFv: QVQLVQSGAEVKKPGASVKVSCKASGYTFTSYYMHWVRQAPGQGLEWMGRINPHSGDADFVDKFQGRVTMTRDTSTSTVYMELSSLRSEDTAVYYCARDRRGYGGNSLDYWGQGTLVTVSSGGGGSGGGGSGGGGSDIQMTQSPSSLSASVGDRVTITCRAGQNIKRYLNWYQQKPGKAPKLLIYAASSLQSGVPSRFSGSGSGTDFTLTISSLQPEDFATYYCQQSYSSPLTFGGGTKVEIK | binds |
| TMPRSS4 Ab10 scFv (VH-VL) (scFv, on monoclonal phage in the screen) scFv: QVQLVQSGAEVKKPGASVKVSCKASGYTFTSYYMHWVRQAPGQGLEWMGIINPSGAGTTYGHNFQGRVTMTRDTSTSTVYMELSSLRSEDTAVYYCARGPRDTAMVRFDYWGQGTLVTVSSGGGGSGGGGSGGGGSEIVMTQSPATLSVSPGERATLSCRASQSVSSYLAWYQQKPGQAPRLLIYGASTRATGIPARFSGSGSGTEFTLTISSLQSEDFAVYYCQQYGSSPGTFGQGTKLEIK | binds |
| TMPRSS4 Ab13 scFv (VH-VL) (scFv, on monoclonal phage in the screen) scFv: QVQLVQSGAEVKKPGASVKVSCKASGYTFTNYYMHWVRQAPGQGLEWMGWISAYNGNTNYAQKLQGRVTMTRDTSTSTVYMELSSLRSEDTAVYYCATASGWGHSNSAGYWGQGTLVTVSSGGGGSGGGGSGGGGSEIVMTQSPATLSVSPGERATLSCRASQSVNGNYLAWYQQKPGQAPRLLIYGVSSRASGIPARFSGSGSGTEFTLTISSLQSEDFAVYYCQQYGSSPYTFGQGTKVEIK | binds |
| TMPRSS4 Ab11 scFv (VH-VL) (scFv, on monoclonal phage in the screen) scFv: QVQLVQSGAEVKKPGASVKVSCKASGGTFSNYAISWVRQAPGQGLEWVGRINPNSGGTNYAQKFQGRVTMTRDTSTSTVYMELSSLRSEDTAVYYCARGRYSSSSWGQGTLVTVSSGGGGSGGGGSGGGGSDIQMTQSPSSLSASVGDRVTITCRASQSINNYLNWYQQKPGKAPKLLIYAASSLQSGVPSRFSGSGSGTDFTLTISSLQPEDFATYYCQQSYSTKWTFGQGTKVEIK | binds |
| TMPRSS4 Ab24 scFv (VH-VL) (scFv, on monoclonal phage in the screen) scFv: QVQLVQSGAEVKKSGASVKVSCKASGYTFTSYYMHWVRQAPGQGLEWMGVINPSGGTTSYAQKFQGRVTMTRETSTSTVYMELSSLRSEDTAVYYCARGRGWLRSALGYWGQGTLVTVSSGGGGSGGGGSGGGGSDIQMTQSPSSLSASVGDRVTITCRASQSISSWLAWYQQKPGKAPKLLIYAASTLQSGVPSRFSGSGSGTDFTLTISSLQPEDFATYYCQQSYNTPYTFGQGTKLEIK | binds |
| TMPRSS4 Ab17 scFv (VH-VL) (scFv, on monoclonal phage in the screen) scFv: QVQLVQSGAEVKKPGASVKVSCKASGYTFTSYYIHWVRQAPGQGLEWMGWMSPNSGDTGYAQKFQGRVTMTRDTSTSTVYMELSSLRSEDTAVYYCARLVRGGFDYWGQGTLVTVSSGGGGSGGGGSGGGGSDIQMTQSPSSLSASVGDRVTITCRASQGISSYLNWYQQKPGKAPKLLIYAASRLQSGVPSRFSGSGSGTDFTLTISSLQPEDFATYYCQQSYRSPPTFGQGTKLEIK | binds |
| TMPRSS4 Ab20 scFv (VH-VL) (scFv, on monoclonal phage in the screen) scFv: QVQLVQSGAEVKKPGASVKVSCKASGYTFTRYYMHWVRQAPGQGLEWMGWMNPNSGNAGYAQKLQGRVTMTRDTSTSTVYMELSSLRSEDTAVYYCARGYNWFDPWGQGTLVTVSSGGGGSGGGGSGGGGSDIQMTQSPSSLSASVGDRVTITCRASQNIATYLSWYQQKPGKAPKLLIYGASALRSGVPSRFSGSGSGTDFTLTISSLQPEDFATYYCLQHNTYPLTFGGGTKVEIK | binds |
| TMPRSS4 Ab16 scFv (VH-VL) (scFv, on monoclonal phage in the screen) scFv: QVQLVQSGAEVKKPGASVKVSCKASGYTFSRHYMHWVRQAPGQGLEWMGRINPNSGGTNYAQKFQGRVTMTRDTSTSTVYMELSSLRSEDTAVYYCARSIYGDYWFDPWGQGTLVTVSSGGGGSGGGGSGGGGSDIQMTQSPSSLSASVGDRVTITCRASQSINRWLAWYQQKPGKAPKLLIYGASNLQSGVPSRFSGSGSGTDFTLTISSLQPEDFATYYCQQANSFPYTFGQGTKLEIK | binds |
| TMPRSS4 Ab27 scFv (VH-VL) (scFv, on monoclonal phage in the screen) scFv: QVQLVQSGAEVKKPGASVKVSCKASGYTFSRYYMHWVRQAPGQGLEWMGWMNPNSGDTGYAQKFQGRVTMTRDTSTSTVYMELSSLRSEDTAVYYCAKGREWLRSPFDYWGQGTLVTVSSGGGGSGGGGSGGGGSDIQMTQSPSSLSASVGDRVTITCRASQSISTWLAWYQQKPGKAPKLLIYAASSLQSGVPSRFSGSGSGTDFTLTISSLQPEDFATYYCQQLSSYPLTFGQGTKVEIK | binds |
| TMPRSS4 Ab12 scFv (VH-VL) (scFv, on monoclonal phage in the screen) scFv: QVQLVQSGAEVKKPGASVKVSCKASGYTFSNYYIHWVRQAPGQGLEWMGWINPNSGDTNYAQKFQGRVTMTRDTSTSTVYMELSSLRSEDTAVYYCARGMTWRTSAATYWGQGTLVTVSSGGGGSGGGGSGGGGSDIQMTQSPSSLSASVGDRVTITCRASQGISRWLAWYQQKPGKAPKLLIYGASNLQTGVPSRFSGSGSGTDFTLTISSLQPEDFATYYCQQSYSTPPTFGPGTKVDIK | binds |
| TMPRSS4 Ab26 scFv (VH-VL) (scFv, on monoclonal phage in the screen) scFv: EVQLLESGGGLVQPGGSLRLSCAASGFTFSSYAMHWVRQAPGKGLEWVAVIWYDGSSKYYADSVKGRFTISRDNSKNTLYLQMNSLRAEDTAVYYCARGEVRRGFQHWGQGTLVTVSSGGGGSGGGGSGGGGSDIQMTQSPSSLSASVGDRVTITCRASQNVGSWLAWYQQKPGKAPKLLIYAASSLQSGVPSRFSGSGSGTDFTLTIRSLQPEDFATYYCQQSYSTPITFGQGTRLEIK | binds |
| TMPRSS4 Ab14 scFv (VH-VL) (scFv, on monoclonal phage in the screen) scFv: EVQLLESGGGLVQPGGSLRLSCAASGFTFSNHYMSWVRQAPGKGLEWVSAISGSGGSTYYADSVKGRFTISRDNSKNTLYLQMNSLRAGDTAVYYCARDRYRWGRGYFQHWGQGTLVTVSSGGGGSGGGGSGGGGSDIQMTQSPSSLSASVGDRVTITCRASQRISTYLNWYQQKPGKAPKLLIYSASTLQAGVPSRFSGSGSGTDFTLTISSLQPEDFATYYCQQAYSLPWTFGQGTKLEIK | binds |
| TMPRSS4 Ab2 scFv (VH-VL) (scFv, on monoclonal phage in the screen) scFv: EVQLLESGGGLVQPGGSLRLSCAASGFTFSDYYMSWVRQAPGKGLEWVSYISGSGDAIYYADSVKGRFTISRDNSKNTLYLQMNSLRAEDTAVYYCARDRSDCGGDDRFLCDGYFDLWGRGTLVSLSGGGGSGGGGSGGGGSDIQMTQSPSSLSASVGDRVTITCRASQSTNNYVNWYQQKPGKAPKLLIYAASSLQSGVPSRFSGSGSGTDFTLTISSLQPEDFATYYCQQSYSIPLTFGPGTKVDIK | binds |
| TMPRSS4 Ab18 scFv (VH-VL) (scFv, on monoclonal phage in the screen) scFv: QVQLVQSGAEVKKPGASVKVSCKASGYTFTSSGINWVRQAPGQGLEWMGWINPNSGGAKYAQRFQGRVTMTRDTSTSTVYMELSSLRSEDTAVYYCARARGYSGSKRDFQHWGQGTLVTVSSGGGGSGGGGSGGGGSDIVMTQSPDSLAVSLGERATINCKSSQSVLYSSNNKNYLAWYQQKPGQPPKLLIYWASTRESGVPDRFSGSGSGTDFTLTISSLQAEDVAVYHCQQYYNTPFTFGPGTKVDIK | binds |
| TMPRSS4 Ab19 scFv (VH-VL) (scFv, on monoclonal phage in the screen) scFv: QVQLVQSGAEVKKPGASVKVSCKASGYTFNRKFMHWVRQAPGQGLEWMGWMNPNNGATNYAQKFQGRVTMTRDTSTSTVYMELSSLRSEDTAVYYCARGRGYYGSGSYYGDYWGQGTLVTVSSGGGGSGGGGSGGGGSDIQMTQSPSSLSASVGDRVTITCRASQSISRYLNWYQQKPGKAPKLLIYGASNLQSGVPSRFSGSGSGTDFTLTISSLQPEDFATYYCQQSYSTPPTFGPGTKVDIK | binds |
| TMPRSS4 Ab15 scFv (VH-VL) (scFv, on monoclonal phage in the screen) scFv: QVQLVQSGAEVKKPGASVKVSCKASGYTFTRYYMHWVRQAPGQGLEWMGWINPNSGVTNFAQKFQGRVTMTRDTSTSTVYMELSSLRSEDTAVYYCARVRIGWLQSPPLYWGQGTLVTVSSGGGGSGGGGSGGGGSDIQMTQSPSSLSASVGDRVTITCRASQSINTWLAWYQQKPGKAPKLLIYAASSLQSGVPSRFSGSGSGTDFTLTISSLQPEDFATYYCQQAISFPLTFGGGTKVEIK | binds |
| TMPRSS4 Ab46 scFv (VH-VL) (scFv, on monoclonal phage in the screen) scFv: QVQLVQSGAEVKKPGASVKVSCKASGYTFSRYFMHWVRQAPGQGLEWMGWINPNSGGTNYAQKFQGRVTMTRDTSTSTVYMELSSLRSEDTAVYYCARVRIGWLQSPPLYWGQGTLVTVSSGGGGSGGGGSGGGGSDIQMTQSPSSLSASVGDRVTITCRASQSISTWLAWYQQKPGKAPKLLIYAASSLQSGVPSRFSGSGSGTDFTLTISSLQPEDFATYYCQQSYGFPWTFGQGTKVEIK | binds |
| TMPRSS4 Ab25 scFv (VH-VL) (scFv, on monoclonal phage in the screen) scFv: QVQLVQSGAEVKKPGASVKVSCKASGGRFSTYALSWVRQAPGQGLEWMGWINPNSGGTNYAQKFQGRVTMTRDTSTSTVYMELSSLRSEDTAVYYCAKSLWWSPSHYYYYGMDVWGQGTTVTVSSGGGGSGGGGSGGGGSEIVMTQSPATLSVSPGERATLSCRASQSVSSNYLAWYQQKPGQAPRLLIYGISTRASGIPARFSGSGSGTEFTLTISSLQSEDFAVYYCQQRSNWPPSITFGQGTRLEIK | binds |
| TMPRSS4 Ab23 scFv (VH-VL) (scFv, on monoclonal phage in the screen) scFv: QVQLVQSGAEVKKPGASVKVSCKASGYTFTRNYLHWVRQAPGQGLEWMGIINPSGGSTTYAQKFQGRVTMTRDTSTSTVYMELSSLRSEDTAVYYCARGRTWFRSGMDVWGQGTTVTVSSGGGGSGGGGSGGGGSEIVMTQSPATLSVSPGERATLSCRASQSVGNYLAWYQQKPGQAPRLLIYGASTRATGIPARFSGSGSGTEFTLTISSLQSEDFAVYYCQQYHSSPPYTFGQGTKVEIK | binds |
